This is an account of results in article PMC7608827 (Science Advances, 2020).

A word on the stoichiometry N: it is a count of units in the complex or per binding partner.

First the molecules themselves.
B1: CaDoc0917, dockerin module of Clostridium acetobutylicum (domain or fragment, UniProt Q97KK2 477-537, looked up)
chain: NTILGDLNDDGVVNGRDIVMMRQYLAGKTVSGIDKNALDINGDGAVNGRDLMELIKKVSNN
B2: CaCohA2, cohesin module of Clostridium acetobutylicum (domain or fragment, UniProt Q977Y4 611-759, looked up)
chain: VKNETVKLSVGTVSGNPGDTVKVPVTISQVSTPVGLICMDISYDASKFTVKDVLPNTDLVKDTDNYSFIVNTSTPGKISITFTDPTLANYPISVDGILAYLDFIINSNATAGDSALTVDPATLIVADENDKDIKDAASNGKITVTGSAP

Common to all, as to test: ITC
A general note: In ITC the heat of successive injections is recorded.

The target of experiment [1] is CaDoc0917(R49D) (Clostridium acetobutylicum).
Experiment [2] shares this target. The source holds these as a separate data set.
The target of experiment [3] is CaDoc0917(R16D) (Clostridium acetobutylicum).
The target is the same in experiment [4]. The source holds these as a separate data set.
In experiment [5] the target is B2.
In experiment [6] the target is B2. The source holds these as a separate data set.
Experiment [7] addresses B2. The source holds these as a separate data set.
The target of experiment [8] is CaDoc0917(R16D/I55R) (Clostridium acetobutylicum).
In experiment [9] the target is CaDoc0917(R49D/R22I) (Clostridium acetobutylicum).
The target of experiment [10] is CaDoc0917(R16D/M52V) (Clostridium acetobutylicum).
Experiment [11] deals with CaDoc0917(R49D/V19M) (Clostridium acetobutylicum).
For experiment [12], the target named is B1.
For experiment [13], the target named is CaDoc0917(R16D/I55R) (Clostridium acetobutylicum). This is another data set of the same source.
The target of experiment [14] is CaDoc0917(R16DE53Q) (Clostridium acetobutylicum).
Experiment [15] has as its target CaDoc0917(R49D/R22I) (Clostridium acetobutylicum). The source holds these as a separate data set.
Experiment [16] deals with CaDoc0917(R16D/M52V) (Clostridium acetobutylicum). This is another data set of the same source.
The target in experiment [17] is CaDoc0917(R49D/V19M) (Clostridium acetobutylicum). The source holds these as a separate data set.
In experiment [18] the target is B1. The source holds these as a separate data set.
The target of experiment [19] is B1. The source holds these as a separate data set.

Read-outs that look alike come from different tables or passages of the source.

With CaCohA2 D130N (domain or fragment), the Ka was found to be 2.1e+07 M⁻¹ in experiment [1], 4.24e+06 M⁻¹ in experiment [2] and 320000 M⁻¹ in experiment [3].
As for CaCohA2 E128Q (domain or fragment), the Ka was 2.1e+07 M⁻¹ in experiment [1], 2.2e+07 M⁻¹ in [4], 1.57e+06 M⁻¹ in experiment [2] and 120000 M⁻¹ in experiment [3].
Consider “CaCohA2 E128Q/D130N (domain or fragment)”, for which the Ka in [1] came to 1.1e+07 M⁻¹; in experiment [4], 3.6e+06 M⁻¹; in [2] it was 2.32e+06 M⁻¹; in experiment [3], 460000 M⁻¹.
Take B1: the Ka in [5] came out at 1.48e+08 M⁻¹; in [6] it was 1.8e+06 M⁻¹; in experiment [7] it was 2.4e+07 M⁻¹.
With B2, the Ka in experiment [1] turned out to be 4.3e+07 M⁻¹; in [8], 1.32e+08 M⁻¹; in experiment [4], 1.03e+08 M⁻¹; in experiment [9], 2.1e+07 M⁻¹; in [10], 2.9e+07 M⁻¹; in [11] it was 5.15e+08 M⁻¹. The Ka in experiment [2] amounted to 1.39e+06 M⁻¹; in experiment [13], 1.04e+06 M⁻¹; in experiment [14], 1.93e+06 M⁻¹; in experiment [3], 170000 M⁻¹; in experiment [15], 180000 M⁻¹; in [16], 290000 M⁻¹. This molecule also gave a Ka in [17] of 1.98e+06 M⁻¹. Also, the figures for the dH in experiment [12], in experiment [18] and in experiment [19] were -7.37 ± 0.04 kcal/mol, -9.54 ± 0.13 kcal/mol and -4.67 ± 0.03 kcal/mol, respectively. The “stoichiometry N” value amounted to 0.95 ± 0.002 in experiment [12], 1.09 ± 0.011 in [18] and 0.862 ± 0.003 in [19].
